{
  "source": "patent US8227408B2",
  "about": "“Leptin as an anti-amyloidogenic biologic and methods for delaying the onset and reducing Alzheimer's disease-like pathology” (Neurotez, Inc., priority 2005, dated 2012)",
  "molecules": {"B1": {"name": "Leptin: peptide hormone controlling adaptive metabolic mechanisms to energy availability; leptin (Harbor-UCLA) in vitro, recombinant murine leptin in mice (protein, UniProt P41160 22-167, looked up)", "Leptin": "VPIQKVQDDTKTLIKTIVTRINDISHTQSVSAKQRVTGLDFIPGLHPILSLSKMDQTLAVYQQVLTSLPSQNVLQIANDLENLRDLLHLLAFSKSCSLPQTSGLQKPESLDGVLEASLYSTEVVALSRLQGSLQDILQQLDVSPEC"}},
  "key": {"SY5Y cells": {"test_system": "SY5Y cells", "test": "Aβ production by SY5Y cells", "type": "cell-based, human", "details": "total Aβ in conditioned media, 5 h; concentration (TOFA 200 μM, cerulenin 200 μM, etomoxir 40 μM, peptide YY (3-36) 25 μM, CNTF 25 μM, leptin 400 ng/ml); mean ± SEM; NS = non-significant", "source_text": "(§1) Cell cultures, Treatments, Antibodies and Immunoassays. SY5Y cells (human neuroblastoma) were maintained in culture as described (Johnsingh et al., FEBS Lett. 465:53-8 (2000)). Primary neural cultures were obtained from ε16 rat embryonic cortex, as described (Shimoda et al., 1992. Brain Res. 586:319-31 (1992)). These were either grown as mixed cultures (Johnsingh et al., FEBS Lett. 465:53-8 (2000)) or grown under conditions that favor the isolation and proliferation of astrocytes (Takeshima et al., J Neurosci. 14:4769-79 (1994)).\n(§2) SY5Y and hyg-sa134-Neuro2a cells were treated at 80% confluency (see below). Primary neural cultures from mouse embryos were allowed to grow for 6-12 days following plating and prior to viral infection and treatments.\nAbout 100 ng/ml or about 400 ng/ml leptin (Harbor-UCLA, CA), was added in cell culture medium for 2 or 5 h. Cells were approximately 80% confluent at the time of treatment. Peptide YY (3-36) (Phoenix Pharmaceuticals, Inc., CA), and CNTF (Sigma-Aldrich, Mo.) were added at about 25 μM or 150 μM for the same incubation periods. TOFA, etomoxir (Research Biochemicals International, MA) and cerulenin (Sigma-Aldrich, Mo.) were used as described below.\nFor the determination of Aβ peptide several methodologies also were used. SY5Y cells in culture were metabolically labeled with ^35S-[Met] as described (Figueiredo-Pereira et al. J Neurochem. 72:1417-22 (1999)), followed by immunoprecipitation, resolution of the immunoprecipitates on SDS-PAGE, autoradiography, and densitometric analysis of the autoradiogram. Neuro2a cells were stably transfected with hyg-sa134 (K. Sambamurti, S. Carolina Medical Center, SC) and Aβ40 (SEQ ID NO: 4) plus Aβ42 (SEQ ID NO: 5) plus Aβ43 (SEQ ID NO: 6) (Total Aβ) in the medium then was quantified by sandwich ELISAs developed with 4G8 and 6 ε10 monoclonal antibodies (Signet, Mass.) as described (Figueiredo-Pereira et al., J Neurochem. 72:1417-22 (1999)). Commercially available ELISA kits (KMI Diagnostics, MN) were used for the separate determination of Aβ40 (SEQ ID NO:4) and Aβ42/43 (SEQ ID NO:5/SEQ ID NO:6) in formic acid extracts of mice brains. Flotillin was detected using monoclonal anti-flotillin-1 antibodies (BD Biosciences, CA). Actin was detected using monoclonal anti-actin antibodies (Research Diagnostics, Inc, NJ).\n(§3) Human (SYSY) or mouse neuroblastoma cell-lines (Neuro2a) commonly are used to study amyloid β metabolism in vitro. Neuro2a cells are stably transfected with hyg-sa134 (SEQ ID NO: 11), a plasmid driving the expression of a recombinant fusion protein containing the human C-terminal fragment of APP of about 134 amino acids, CAPP134 (SEQ ID NO: 10). Here, 5Y5Y or Neuro2a cultures were treated for 2 or 5 h with about 100 ng/ml or about 400 ng/ml leptin (FIG. 4a, 4b). Similarly, primary neurons from embryonic rat brain, infected with an adenovirus to direct the expression of CAPP134 (SEQ ID NO:10) also were treated according to the same regimen."}, "[1]": {"test_system": "primary embryonic rat neurons infected with adenovirus", "test": "Aβ production by primary embryonic rat neurons infected with adenovirus (SEAP-APP)", "type": "cell-based", "details": "total Aβ in conditioned media, 5 h; concentration (TOFA 200 μM, cerulenin 200 μM, etomoxir 40 μM, peptide YY (3-36) 25 μM, CNTF 25 μM, leptin 400 ng/ml); mean ± SEM; NS = non-significant", "source_text": "as §1\nNeuro2a (mouse neuroblastoma) stably transfected with hyg-sa134, a pcDNA3.1/Hygro plasmid (Invitrogen, CA) modified to express a fusion protein of secreted alkaline phosphatase (SEAP) and a fragment of APP consisting of the C-terminal 134 amino acids (“CAPP134”) (SEQ ID NO:10) were maintained in culture as described ([…]) in the presence of 400 μg/ml of hygromycin. SEQ ID NO: 11 is the DNA sequence of the entire hygsa134 vector, which was derived from the pcDNA3.1/Hygro vector by genetic manipulation to insert the DNA sequences for SEAP and CAPP134. The SEAP-CAPP cDNA insert from hyg-sa134 was also subcloned into an adenoviral vector using the Adeno Vator system (Qbiogene, Calif.). The DNA sequence for SEAP (corresponding to nucleotides 981-2441 of hyg-sa134) (SEQ ID NO: 9) is located 5′ to the DNA sequence (SEQ ID NO: 12) coding for CAPP134 (SEQ ID NO: 10).\nas §2, §3"}, "primary neurons": {"test_system": "primary neurons", "test": "Filipin staining of primary neurons", "type": "cell-based, rat", "details": "about 5 h", "description": "Leptin was detected using a rabbit polyclonal antibody raised against mouse leptin, corss-reacting with human leptin (obtained from Dr. A. F. Parlow, Harbor-UCLA, CA). Immunofluorescent confocal microscopy was performed on 2% paraformaldehyde-fixed primary neural cells. Filipin staining was performed as described (Feng et al., Nat Cell Biol. 5:781-92 (2003)).\nNeural cultures from ε15 rat cerebral cortex were processed for enrichment of neurons (a-d) or astrocytes (e-h) as described (Takeshima et al., J. Neurosci. Methods 67: 27-41 (1996)). After about 7 days to about 10 days in culture, cultures were treated for about 5 h with about 10 μg/ml cholesterol (b, f) or about 400 ng/ml leptin plus cholesterol (c, g) or leptin alone (d, h). Controls (a, e) were treated with culture media alone. Filipin staining was performed as described (Feng et al., Nat. Cell Biol. 5: 781-92 (2003)). Neurons (i-k) and astrocytes (l-n) prepared as above were treated with 0 μM (i, l), 5 μM (j, m) or 10 μM cholesterol (k, n) for 5 h. Immunostaining was performed for leptin (A.F.Parlow, Harbor-UCLA, CA)."}, "[2]": {"test_system": "Neuro2a cells stably transfected with hyg-sa134 (SEAP-APP)", "test": "Aβ production by Neuro2a cells stably transfected with hyg-sa134 (total Aβ in media, sandwich ELISA)", "type": "cell-based, mouse", "details": "5 h; about 400 ng/ml leptin alone or 10 μM water-soluble cholesterol alone; FIG. 4b"}},
  "data": [
    {"molecule": "B1", "values": [
      {"measurement": "SY5Y Aβ (% control)", "setting": "SY5Y cells", "value": "38 ± 7", "unit": "% control"},
      {"measurement": "Neurons/SEAPP-APP Aβ (% control)", "setting": "[1]", "value": "35 ± 4", "unit": "% control"},
      {"measurement": "increase in filipin labelling by cholesterol", "setting": "primary neurons; neurons, leptin about 400 ng/ml plus cholesterol about 10 μg/ml", "value": "prohibited an increase"},
      {"measurement": "filipin labelling", "setting": "primary neurons; primary neurons, about 400 ng/ml leptin", "value": "diminished filipin labelling"},
      {"measurement": "levels of Aβ detected in the media (percentage of corresponding controls)", "setting": "[2]", "value": "56±5", "unit": "%"}
    ]}
  ]
}
